Values joined by “and” are separate entries in the source; they are usually repeats but may differ in a detail not shown here. Equal entries are not always repeated. Where two headings read alike, the source gives them in different places. Positions of bridges follow the written chain, without caps; N, C: chain ends. Non-standard residues stand in square brackets, D forms with d. No end group written: not given here. alpha,alpha'‑meta‑xylylene = alpha,alpha'-meta-xylylene linker (from a,a'-dibromo-meta-xylene) bridging two cysteines via bis-thioether; βAla = NCCC(=O)O
T1: Cathepsin K (UniProt P43235 115-329)
T1 sequence (looked up): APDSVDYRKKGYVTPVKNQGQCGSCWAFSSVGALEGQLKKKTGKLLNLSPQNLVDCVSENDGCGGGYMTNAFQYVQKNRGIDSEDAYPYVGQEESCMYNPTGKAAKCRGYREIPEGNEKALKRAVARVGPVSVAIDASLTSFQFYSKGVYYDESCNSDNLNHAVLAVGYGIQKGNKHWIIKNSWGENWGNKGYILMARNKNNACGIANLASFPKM

T2: Calpain-1
T2 chain 1: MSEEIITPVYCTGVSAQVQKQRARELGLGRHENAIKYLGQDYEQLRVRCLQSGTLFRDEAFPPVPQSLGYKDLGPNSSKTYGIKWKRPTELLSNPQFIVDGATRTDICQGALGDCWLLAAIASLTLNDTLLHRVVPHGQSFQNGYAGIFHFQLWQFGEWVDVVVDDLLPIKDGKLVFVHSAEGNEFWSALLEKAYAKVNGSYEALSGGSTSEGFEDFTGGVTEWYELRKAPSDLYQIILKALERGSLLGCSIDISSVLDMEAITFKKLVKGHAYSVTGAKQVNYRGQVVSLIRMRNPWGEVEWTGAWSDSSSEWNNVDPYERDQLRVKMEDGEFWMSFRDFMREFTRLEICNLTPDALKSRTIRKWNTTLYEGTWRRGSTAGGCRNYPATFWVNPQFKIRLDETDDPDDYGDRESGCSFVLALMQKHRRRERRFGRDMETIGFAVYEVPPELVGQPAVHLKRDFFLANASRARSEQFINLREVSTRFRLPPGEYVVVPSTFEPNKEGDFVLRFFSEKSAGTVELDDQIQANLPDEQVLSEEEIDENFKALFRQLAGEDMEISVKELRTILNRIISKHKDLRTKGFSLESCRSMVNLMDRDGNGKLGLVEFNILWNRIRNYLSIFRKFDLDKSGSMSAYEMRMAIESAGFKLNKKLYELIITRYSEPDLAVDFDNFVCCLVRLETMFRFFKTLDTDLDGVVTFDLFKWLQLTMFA
T2 chain 2: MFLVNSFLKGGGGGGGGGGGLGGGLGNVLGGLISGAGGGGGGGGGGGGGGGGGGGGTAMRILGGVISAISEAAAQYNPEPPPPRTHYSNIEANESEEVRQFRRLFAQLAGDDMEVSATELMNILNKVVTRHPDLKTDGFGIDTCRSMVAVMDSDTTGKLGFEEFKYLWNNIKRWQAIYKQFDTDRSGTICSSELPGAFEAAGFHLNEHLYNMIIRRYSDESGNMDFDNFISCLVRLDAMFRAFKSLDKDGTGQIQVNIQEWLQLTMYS

B1: WWEWWCSLMCS (SEQ ID NO:26) (peptide)
peptide: WWEWWCSLMCS
modifications: linker 6-10 via alpha,alpha'‑meta‑xylylene
notes: quadruple mutant; also called compound (IVa)
B2: I(pf5)PKYCELLC (SEQ ID NO:77) (peptide)
peptide: IXPKYCELLC
modifications: Cys6 and Cys10 (i,i+4) linked by alpha,alpha'-meta-xylylene; residue 2 pf5 = pentafluorophenylalanine
B3: SCESVCKPWGP (SEQ ID NO:50) (peptide)
peptide: SCESVCKPWGP
modifications: linker 2-6 via alpha,alpha'‑meta‑xylylene
notes: also called compound (IIa); quadruple mutant

How the values were obtained:
Experiment in all cases: fluorescence-based enzyme inhibition assay
Cathepsin K [1] = biological target: T1, Cathepsin K
Calpain-1 [2] = biological target: T2, Calpain-1
Cathepsin L [3] = biological target: T3, Cathepsin L (UniProt P07711 114-333)
Cathepsin S [4] = biological target: T4, Cathepsin S (UniProt P25774 115-331)
Cathepsin S [5] = biological target: T4, Cathepsin S; remark: listed apart in the source
Cathepsin L [6] = biological target: T3, Cathepsin L; remark: listed apart in the source
Calpain-1 [7] = biological target: T2, Calpain-1
Cathepsin K [8] = biological target: T1, Cathepsin K; remark: listed apart in the source
Cathepsin S [9] = biological target: T4, Cathepsin S; remark: listed apart in the source

T4 sequence (P25774 115-331 limits assumed): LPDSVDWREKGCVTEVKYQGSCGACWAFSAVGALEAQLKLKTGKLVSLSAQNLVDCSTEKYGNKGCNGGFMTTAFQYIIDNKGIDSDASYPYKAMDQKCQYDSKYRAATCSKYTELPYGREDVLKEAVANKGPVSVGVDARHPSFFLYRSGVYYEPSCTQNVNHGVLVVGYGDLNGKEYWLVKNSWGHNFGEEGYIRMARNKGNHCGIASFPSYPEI
T3 sequence (P07711 114-333 limits assumed): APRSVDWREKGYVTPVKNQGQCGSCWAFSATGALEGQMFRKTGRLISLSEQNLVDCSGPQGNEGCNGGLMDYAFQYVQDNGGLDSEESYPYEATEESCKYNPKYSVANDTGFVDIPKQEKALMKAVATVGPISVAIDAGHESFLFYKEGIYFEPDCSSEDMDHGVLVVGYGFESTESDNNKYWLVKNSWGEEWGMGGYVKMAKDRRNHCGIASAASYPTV

Binder	Ki (Calpain-1 [2]) [µM]	Ki (Cathepsin L [3]) [µM]	Ki (Cathepsin S [4]) [µM]	further results
SCESVCKPWGPKVP (linker 2-6 via alpha,alpha'‑meta‑xylylene, 14-mer) [SCESVCKPWGPKVP (SEQ ID NO:55)]	–	–	–	Ki (Cathepsin K [1]): 16.2 µM
IPPKYCELFC (linker 6-10 via alpha,alpha'‑meta‑xylylene) [IPPKYCELFC (SEQ ID NO:88)]	27.9	–	–	–
PPPKYCELLC (linker 6-10 via alpha,alpha'‑meta‑xylylene) [PPPKYCELLC (SEQ ID NO:73)]	45.3	–	–	–
EVTIPPKYCELLC (linker 9-13 via alpha,alpha'‑meta‑xylylene) [EVTIPPKYCELLC (SEQ ID NO:69)]	5.3	69.6	31.3	–
FFEFFCSLMCS (linker 6-10 via alpha,alpha'‑meta‑xylylene) [FFEFFCSLMCS (SEQ ID NO:27)]	–	–	–	Ki (Cathepsin S [5]): 13.1 µM
[βAla]AIPPKYCELLC (linker 8-12 via alpha,alpha'‑meta‑xylylene) [(b-Ala)AIPPKYCELLC (SEQ ID NO:70)]	10.7	–	–	–
TSEEVCSLMCS (linker 6-10 via alpha,alpha'‑meta‑xylylene) [TSEEVCSLMCS (SEQ ID NO:16)]	–	–	–	Ki (Cathepsin L [6]): 16.7 µM; Ki (Cathepsin S [5]): 52.1 µM
WWEWVCSLMCS (linker 6-10 via alpha,alpha'‑meta‑xylylene, triple mutant) [WWEWVCSLMCS (SEQ ID NO:25)]	–	–	–	Ki (Calpain-1 [7]): 85.5 µM; Ki (Cathepsin L [6]): 16.1 µM; Ki (Cathepsin S [5]): 6.74 µM; Ki (Cathepsin K [8]): 19.5 µM
WSEEVCSLMCS (linker 6-10 via alpha,alpha'‑meta‑xylylene, single mutant) [WSEEVCSLMCS (SEQ ID NO:17)]	–	–	–	Ki (Calpain-1 [7]): 108 µM; Ki (Cathepsin L [6]): 76 µM; Ki (Cathepsin S [5]): 51 µM
TWEWVCSLMCS (linker 6-10 via alpha,alpha'‑meta‑xylylene, double mutant) [TWEWVCSLMCS (SEQ ID NO:23)]	–	–	–	Ki (Calpain-1 [7]): 88.4 µM; Ki (Cathepsin L [6]): 33.8 µM; Ki (Cathepsin S [5]): 14.3 µM; Ki (Cathepsin K [8]): 65.7 µM
TSEWVCSLMCS (linker 6-10 via alpha,alpha'‑meta‑xylylene, single mutant) [TSEWVCSLMCS (SEQ ID NO:20)]	–	–	–	Ki (Cathepsin L [6]): 57.1 µM; Ki (Cathepsin S [5]): 33.1 µM
TWEEVCSLMCS (linker 6-10 via alpha,alpha'‑meta‑xylylene, single mutant) [TWEEVCSLMCS (SEQ ID NO:18)]	–	–	–	Ki (Cathepsin L [6]): 93.9 µM; Ki (Cathepsin S [5]): 29.7 µM; Ki (Cathepsin K [8]): 67.5 µM
B1	–	–	–	Ki (Calpain-1 [7]): 66.7 µM; Ki (Cathepsin L [6]): 28.1 µM; Ki (Cathepsin S [5]): 1.23 µM; Ki (Cathepsin K [8]): 37.9 µM
TSEEWCSLMCS (linker 6-10 via alpha,alpha'‑meta‑xylylene, single mutant) [TSEEWCSLMCS (SEQ ID NO:21)]	–	–	–	Ki (Cathepsin L [6]): 105 µM; Ki (Cathepsin S [5]): 80.4 µM
DPPKYCELLC (linker 6-10 via alpha,alpha'‑meta‑xylylene) [DPPKYCELLC (SEQ ID NO:71)]	27.6	–	–	–
B2	5.09	–	–	–
SCESVCKMTGL (linker 2-6 via alpha,alpha'‑meta‑xylylene) [SCESVCKMTGL (SEQ ID NO:37)]	–	–	–	Ki (Cathepsin S [9]): 10.8 µM; Ki (Cathepsin K [1]): > 100 µM
SCEVVCKMTGP (linker 2-6 via alpha,alpha'‑meta‑xylylene) [SCEVVCKMTGP (SEQ ID NO:44)]	–	–	–	Ki (Cathepsin S [9]): 27.8 µM; Ki (Cathepsin K [1]): 1.34 µM and 0.659 µM

Binder	Ki (Calpain-1 [2]) [µM]	Ki (Cathepsin L [3]) [µM]	Ki (Cathepsin S [4]) [µM]	further results
QPPKYCELLC (linker 6-10 via alpha,alpha'‑meta‑xylylene) [QPPKYCELLC (SEQ ID NO:76)]	35	–	–	–
SCEVVCKMTGLKVPL (linker 2-6 via alpha,alpha'‑meta‑xylylene, 15-mer) [SCEVVCKMTGLKVPL (SEQ ID NO:56)]	–	–	–	Ki (Cathepsin K [1]): 22.7 µM
IPPKYCELLC (linker 6-10 via alpha,alpha'‑meta‑xylylene) [IPPKYCELLC (SEQ ID NO:65)]	10.2	39.9	50.2	–
IPPKYCALLC (linker 6-10 via alpha,alpha'‑meta‑xylylene) [IPPKYCALLC (SEQ ID NO:84)]	28.9	12.5	15.6	–
IPPKYCEALC (linker 6-10 via alpha,alpha'‑meta‑xylylene) [IPPKYCEALC (SEQ ID NO:86)]	30.9	21.4	13.9	–
LPPKYCELLC (linker 6-10 via alpha,alpha'‑meta‑xylylene) [LPPKYCELLC (SEQ ID NO:74)]	11	38.1	46.3	–
IPPAYCELLC (linker 6-10 via alpha,alpha'‑meta‑xylylene) [IPPAYCELLC (SEQ ID NO:78)]	17.7	24.6	20.7	–
IPPRYCELLC (linker 6-10 via alpha,alpha'‑meta‑xylylene) [IPPRYCELLC (SEQ ID NO:80)]	5.3	37.9	35.9	–
APPKYCELLC (linker 6-10 via alpha,alpha'‑meta‑xylylene) [APPKYCELLC (SEQ ID NO:72)]	65.6	12.5	26.1	–
IPPKYCEQLC (linker 6-10 via alpha,alpha'‑meta‑xylylene, also called compound (Ia)) [IPPKYCEQLC (SEQ ID NO:85)]	11	66.2	21.4	–
IPPRWCELLC (linker 6-10 via alpha,alpha'‑meta‑xylylene) [IPPRWCELLC (SEQ ID NO:91)]	–	8.8	–	–
IPPKACELLC (linker 6-10 via alpha,alpha'‑meta‑xylylene) [IPPKACELLC (SEQ ID NO:81)]	–	8.12	16.8	–
IPPKYRCLLAC (linker 7-11 via alpha,alpha'‑meta‑xylylene) [IPPKYRCLLAC (SEQ ID NO:66)]	7.5	5.1	–	–
SCEEVCKPGGP (linker 2-6 via alpha,alpha'‑meta‑xylylene) [SCEEVCKPGGP (SEQ ID NO:47)]	–	–	–	Ki (Cathepsin K [1]): > 100 µM
LGKREVTIPPKYCELLC (linker 13-17 via alpha,alpha'‑meta‑xylylene, 17 amino acids) [LGKREVTIPPKYCELLC (SEQ ID NO:67)]	3.6	–	31.5	–
LFKREVTIPPKYCELLC (linker 13-17 via alpha,alpha'‑meta‑xylylene, 17 amino acids) [LFKREVTIPPKYCELLC (SEQ ID NO:68)]	1.3	10.7	41.5	–
IPPCYRECLA (linker 4-8 via alpha,alpha'‑meta‑xylylene) [IPPCYRECLA (SEQ ID NO:64)]	95.6	–	–	–
B3	–	–	–	Ki (Cathepsin K [1]): 17.2 µM
